Data taken from patent US20160202264A1, “A high-throughput assay to identify molecules that modulate Rb-E2F binding” (The Regents of the University of California, priority 2013, published 2016).
Where no end group is shown, it is not given here.

Target: T1, Rb-E2F binding (RbNP construct, E2FTMR peptide) (Homo sapiens, UniProt P06400, DEL245-267/DEL582-642)
T1 construct: lacks the internal loops in each domain (residues 53-787, Δ245-267, Δ582-642)
Test: Fluorescence polarization titration of RbNP into E2FTMR
Settings: RbNP titrated into 10 nM E2FTMR
Text: The inventors have designed and successfully implemented a high-throughput fluorescence polarization assay to screen molecules for their modulation of Rb-E2F binding affinity. In the current exemplary format, a peptide corresponding to the E2F transactivation domain (E2F2 amino acids 409-428) was synthesized with a tetramethylrhodamine dye (TMR) at its N-terminus (E2FTMR). This peptide can then be mixed with various Rb constructs, which bind the peptide and change the polarization of the TMR fluorescence. For initial experiments, the investigators have used an Rb construct RbNP, which contains the Rb N-terminal domain and pocket domain but lacks the internal loops in each domain (residues 53-787, Δ245-267, Δ582-642).
The affinity of E2FTMR for unphosphorylated Rb is approximately 7-fold tighter than its affinity for phosphorylated RbNP. In the presence of 10 μM synthetic peptide that contains the ‘L×C×E’ sequence from the E7 oncoprotein, phosphorylated Rb binds E2F with 2-fold higher affinity. This peptide, which has a similar effect in calorimetry measurements of affinity, binds near the RbN-pocket interface, and the investigators predict it inhibits interdomain docking.

T1 sequence (P06400 with tags, fused parts or gaps DEL245-267/DEL582-642, one chain of several): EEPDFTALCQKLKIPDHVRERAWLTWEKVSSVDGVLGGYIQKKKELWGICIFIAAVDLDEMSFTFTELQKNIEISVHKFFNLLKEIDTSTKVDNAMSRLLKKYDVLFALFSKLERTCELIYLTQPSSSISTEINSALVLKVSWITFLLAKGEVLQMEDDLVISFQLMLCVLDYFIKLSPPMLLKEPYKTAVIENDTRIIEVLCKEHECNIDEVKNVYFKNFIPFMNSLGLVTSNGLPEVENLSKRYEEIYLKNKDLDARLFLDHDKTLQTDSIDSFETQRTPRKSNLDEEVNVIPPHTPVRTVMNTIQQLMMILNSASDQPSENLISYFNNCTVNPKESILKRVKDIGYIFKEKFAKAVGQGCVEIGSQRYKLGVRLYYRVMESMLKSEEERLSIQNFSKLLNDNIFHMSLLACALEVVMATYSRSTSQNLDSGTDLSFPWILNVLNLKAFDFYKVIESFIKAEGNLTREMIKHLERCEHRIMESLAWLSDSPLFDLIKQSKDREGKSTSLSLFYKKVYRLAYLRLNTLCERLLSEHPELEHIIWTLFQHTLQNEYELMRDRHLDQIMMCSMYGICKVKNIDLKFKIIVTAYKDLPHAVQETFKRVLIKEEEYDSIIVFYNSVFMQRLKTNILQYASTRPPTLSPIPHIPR

Substance: E2FTMR: peptide corresponding to the E2F transactivation domain (E2F2 amino acids 409-428) with a tetramethylrhodamine dye at its N-terminus (tetramethylrhodamine-QDDYLWGLEAGEGISDLFDS; UniProt Q14209 409-428, looked up, fragment)
- Affinity of E2FTMR for unphosphorylated Rb relative to phosphorylated RbNP: approximately 7 fold
